The record followed here is patent publication EP4649952A1 (dated 2025).

Residue numbers refer to the chain shown, from its start.

The target in the test is T1, KRAS Q61H peptide on HLA-A*01:01 (human).
T1 peptide: ILDTAGHEEY
Put plainly: cytokine release.

B1: TCR-1 (TCR, V domains shown)
Valpha: KVTQAQTEISVVEKEDVTLDCVYETRDTTYYLFWYKQPPSGELVFLIRRNSFDEQNEISGRYSWNFQKSTSSFNFTITASQVVDSAVYFCALSEANQAGTALIFGKGTTLSVSS
Vbeta: EAQVTQNPRYLITVTGKKLTVTCSQNMNHEYMSWYRQDPGLGLRQIYYSMNVEVTDKGDVPEGYKVSRKEKRNFPLILESPSPNQTSLYFCASSRKVPPVYGYTFGSGTRLTVV
Consider B1, for which the binding result is given as “recognises”.

B2: TCR-3 (TCR, V domains shown)
Valpha: AQKVTQAQTEISVVEKEDVTLDCVYETRDTTYYLFWYKQPPSGELVFLIRRNSFDEQNEISGRYSWNFQKSTSSFNFTITASQVVDSAVYFCALSEAKAAGNKLTFGGGTRVLVKP
Vbeta: B1 Vbeta with V97L, V100T
For the molecule B2, the binding result is “recognises”.

B3: TCR-2 (TCR, V domains shown)
Valpha: B1 Valpha
Vbeta: B1 Vbeta with K96R, V97W, V100T, Y101D, G102T, Y103Q, T104Y, S107P, V114L
Take B3: the binding result is “recognises”.
